Biological target: T1, Sema-3A (Mus musculus, UniProt O08665)
T1 construct: Visual cortex of adult mice were dissected and lysed in homogenization buffer; from tissue; host or cells: adult mouse visual cortex
T1 sequence (O08665 21-772): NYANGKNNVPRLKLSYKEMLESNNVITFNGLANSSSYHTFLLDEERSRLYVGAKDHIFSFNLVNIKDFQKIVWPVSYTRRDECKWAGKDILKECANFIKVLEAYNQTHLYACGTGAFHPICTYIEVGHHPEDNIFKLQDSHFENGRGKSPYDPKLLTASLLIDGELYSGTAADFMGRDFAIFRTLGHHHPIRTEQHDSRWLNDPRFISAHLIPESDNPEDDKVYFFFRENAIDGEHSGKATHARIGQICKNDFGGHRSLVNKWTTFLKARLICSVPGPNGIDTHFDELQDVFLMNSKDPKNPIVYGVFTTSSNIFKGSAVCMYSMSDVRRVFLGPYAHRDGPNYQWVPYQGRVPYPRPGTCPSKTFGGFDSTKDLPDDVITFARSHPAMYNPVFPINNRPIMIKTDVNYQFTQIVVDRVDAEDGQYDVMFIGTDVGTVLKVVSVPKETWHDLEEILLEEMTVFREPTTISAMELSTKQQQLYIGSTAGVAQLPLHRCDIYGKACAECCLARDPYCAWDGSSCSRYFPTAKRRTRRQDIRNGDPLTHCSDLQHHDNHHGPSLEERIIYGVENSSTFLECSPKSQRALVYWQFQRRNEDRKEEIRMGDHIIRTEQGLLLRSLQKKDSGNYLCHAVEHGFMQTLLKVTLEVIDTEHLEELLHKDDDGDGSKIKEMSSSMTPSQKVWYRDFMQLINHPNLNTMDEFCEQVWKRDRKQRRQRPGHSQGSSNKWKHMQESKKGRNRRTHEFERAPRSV
Test: Ligand pull-down with lysates of adult mouse visual cortex, western blot for Sema-3A
Assay type: binding
Conditions: ligand pre-incubated with 50 nmol peptide
Experimental: Visual cortex of adult mice were dissected and lysed in homogenization buffer (0.32 M sucrose, 5 mM HEPES, 10 mM MgCl2 and protease inhibitors). Samples were centrifuged (8 min, 1700 g) at 4° C. and the supernatant was incubated 2 hours at 37° C. with 5 nmol of GAG mimics. For the competition assay, ligands were pre-incubated 30 min with 50 nmol of RK-, AA- or SC-peptide at 37° C. prior to incubation overnight at 4° C. with streptavidin-coupled Dynabeads (Life technologies). The loaded beads were washed with homogenization buffer and heated 10 min at 95° C. in Laemmli buffer (with DTT) to detach proteins for western blot analysis.
Immunoprecipitated proteins were separated on NuPAGE 4-12% Bis-Tris pre-cast gels (Invitrogen) for 1 h at 200 V and transferred onto a methanol-activated PVDF membrane at 400 mA for 1 h. Membranes were blocked with 5% non-fat dry milk for 1 h before incubation with primary antibody anti-Sema3A (rabbit, 1/1000, Millipore) overnight at 4° C. […] Membranes were digitized with an LAS-4000 (Fujifilm) and quantified by densitometry with ImageJ.
To measure the in vivo activity and specificity of biotinylated GAG mimics, we performed biochemical and immunohistochemical analyses. […] We first focused on Sema-3A, as cortical Otx2 levels are too low to be reliably detected biochemically.

Q: For RKQRRERTTFTRAQL [RKpep], which “disruption of Sema-3A interaction with (EC′AC′)6 by competing peptide” value is on record?
A: Its value is “specifically disrupts Sema-3A interaction”.

Reference: US11357816B2, “Ligand controling interaction between gags with their effector molecules and use thereof” (CENTRE NATIONAL DE LA RECHERCHE SCIENTIFIQUE (CNRS), priority 2018, dated 2022)
